Data as given in patent EP4509522A1.

Target: human recombinant TGFβ1 (Peprotech) (human) (UniProt P01137)
Experiment: cell-based or functional assay

Sequence of human recombinant TGFβ1 (Peprotech) (human) (P01137 279-390 limits assumed): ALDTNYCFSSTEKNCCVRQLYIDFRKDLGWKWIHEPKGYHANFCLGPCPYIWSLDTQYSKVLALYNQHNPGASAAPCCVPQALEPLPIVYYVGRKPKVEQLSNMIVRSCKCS

| fold-change in IFNy secretion, sub-optimal aCD3/aCD28 beads (1:300) + 10 ng/ml TGFβ versus beads alone [fold] | fold-change in IFNy secretion, αCD3/αCD28 beads (1:100) + 10 ng/ml TGFβ versus beads alone [fold] | Substance |
| --- | --- | --- |
| 0.7 | 0.87 | BM3, truncated version of TGFβRII (from UniProt P37173 23-199) (receptor) |
| 1.9 | 1.2 | BM2, ectodomain of TGFβ receptor II (TGFβRII) with transmembrane and intracellular domains of CD137 (from UniProt P37173 23-166; Q07011 187-255) |
